Measured values taken from PMC6104945, “Structures of NHBA elucidate a broadly conserved epitope identified by a vaccine induced antibody” (PLoS ONE, 2018).

Target: T1, FL NHBA variant p3 (strain MC58) (Neisseria meningitidis MC58, UniProt Q7DD37, strain)
T1 construct: also called NHBAp3 (MC58); source: recombinant, purified protein antigen
Experiment: SPR; single-cycle kinetics, Biacore T200, 25°C; Fab 5H2 (~800-1100 RU) captured by anti-human Fab antibodies on CM5; NHBA antigen injected at 3.125-50 nM, 30 uL/min; HBS-EP pH 7.4; 1:1 Langmuir model with mass transfer term; triplicate
Details: both partners purified

B1: Fab 5H2 (Fab derived from the vaccine-elicited human monoclonal antibody 5H2) (Fab, V domains shown)
VH: QVQLQESGPGLVKPSETLSLTCTVSGGSVSSGSSYWTWIRQTPGKGLEWIGYTSYSGSTKYNPSLKSRVTLSVDMSKNQFSLKLKSVTAADTAVYFCARDRFDVASGSSFDFWGQGTLVTVSS
VL: EIVMTQTPSSLSASVGDRVTITCRASQSISNYLNWYQQKPGTAPKLLTYAASSLGSGVPSRFSGSGSGTDLTLTISSLRPEDFATYYCQQSYGSPTFGQGTKLEIR
notes: they are in the structures deposited here: PDB 5NYX chains H, M, O and PDB 5O1R chains H, I (residues Q1-C226 modelled); they are in the structures deposited here: PDB 5NYX chains L, N, P and PDB 5O1R chains L, M (residues E1-E212 modelled); Recombinant Fab; variable region genes synthesised; also called huFab 5H2; source: Expi293 cells, transient transfection, purified from supernatant …
- Kd: 0.4 nM
